We go through 1 substance from article PMC8304084, “A Concerted Action of UBA5 C-Terminal Unstructured Regions Is Important for Transfer of Activated UFM1 to UFC1” (International Journal of Molecular Sciences, 2021).

pKd: −log10 of the molar value.

The target in one test is T1, GABARAP (Homo sapiens, UniProt O95166).
T1 construct: modified ubiquitin tag (Ub19) with TEV site (N, cleaved yes); made in house; host or cells: E. coli T7 Express
Briefly: ITC, UBA5 peptides vs GABARAP. The settings on record: 25 °C. In kind it is binding. An excerpt:
(§1) To understand how the UBA5 C-terminus participates in the ufmylation cascade, we performed isothermal titration calorimetry (ITC) experiments, in which we titrated UBA5 C-terminal peptides (see Table 1) to the UBA5 AD, UFC1, UFM1 and representative LC3/GABARAP proteins (Figure 2A, Supplementary Figure S2A–D and Table 2).
All proteins and peptides were expressed in E.Coli T7 Express (New England Biolabs GmbH, Frankfurt, Germany) cells in LB or M9 (to obtain ^15N- and ^13C,^15N-labeled polypeptides) media according to the protocol described in [33, 36]. For protein purification, bacterial cell pellets were resuspended in lysis buffer (50 mM Tris-HCl pH = 7.5, 100 mM NaCl, 5% glycerol, 5 mM PIC (protease inhibitor cocktail)) and lysed via sonication (TT13 Sonotrode, 40% amplitude, for 6 × 1 min with a 0.5/0.5-s pulse). Lysates were centrifuged for 45 min at 17,000× g at 4 °C. Supernatants were loaded onto a His Trap Fast Flow 5 mL column (GE Healthcare, München, Germany) equilibrated in loading buffer (50 mM Tris-HCl pH = 8.0, 250 mM NaCl, 1% glycerol, 20 mM imidazole). The column was washed with loading buffer for 5–10 CV and protein was eluted with elution buffer (50 mM Tris-HCl pH = 8, 250 mM NaCl, 1% glycerol, 400 mM imidazole). Simultaneous TEV cleavage (1 mg TEV protease was added to 100 mg peptides/proteins) and buffer exchange to loading buffer via dialysis was performed over night at 4 °C. After reverse IMAC, proteins were concentrated with conical concentrators (Millipore Merck, Darmstadt, Germany) and loaded on a Superdex 10/60 75 or 200 column (GE Healthcare, München, Germany) for further purification and equilibration with ITC/NMR buffer (25 mM HEPES pH = 7.5, 100 mM NaCl). […] The protein and peptide concentrations were calculated from the UV absorption at 280 nm by Nanodrop spectrophotometer (Thermo Scientific, Langenselbold, Germany).
All ITC experiments were performed at 25 °C using a VP-ITC microcalorimeter (Malvern Panalytical Ltd., Malvern, UK). […] The ITC data were analyzed based on a “one-site” binding model with MicroCal ITC software implemented in Origin 7.0.
Background: ITC needs no label: the signal is the heat of the interaction.

The target of test [1] is T2, UFC1 (Homo sapiens, UniProt Q9Y3C8).
T2 construct: Full length UFC1, residues 1–167; modified ubiquitin tag (Ub19) with TEV site (N, cleaved yes); made in house; host or cells: E. coli T7 Express
T2 sequence (Q9Y3C8 1-167): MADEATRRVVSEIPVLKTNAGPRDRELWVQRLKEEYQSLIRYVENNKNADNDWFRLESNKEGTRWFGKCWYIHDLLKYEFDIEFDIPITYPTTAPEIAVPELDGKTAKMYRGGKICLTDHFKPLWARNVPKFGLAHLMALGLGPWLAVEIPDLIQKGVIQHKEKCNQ
The test can be described thus: ITC, UBA5 constructs vs UFC1. In kind it is binding.
Description: as §1
To investigate if conjugation of UFM1 to the UBA5 catalytic cysteine (C250) affects the UFC1:UBA5 interactions, we prepared full length UBA5 C250K mutant and stably conjugated UFM1 to it as reported before for a number of ubiquitin-specific E2 enzymes. We compared the UFC1 spectra after addition of a twofold molar excess of FL^1–404 and FL^1–404 C250K~UFM1 constructs (Supplementary Figure S5C).
All proteins and peptides were expressed in E.Coli T7 Express (New England Biolabs GmbH, Frankfurt, Germany) cells in LB or M9 (to obtain ^15N- and ^13C,^15N-labeled polypeptides) media according to the protocol described in [33, 36]. For protein purification, bacterial cell pellets were resuspended in lysis buffer (50 mM Tris-HCl pH = 7.5, 100 mM NaCl, 5% glycerol, 5 mM PIC (protease inhibitor cocktail)) and lysed via sonication (TT13 Sonotrode, 40% amplitude, for 6 × 1 min with a 0.5/0.5-s pulse). Lysates were centrifuged for 45 min at 17,000× g at 4 °C. Supernatants were loaded onto a His Trap Fast Flow 5 mL column (GE Healthcare, München, Germany) equilibrated in loading buffer (50 mM Tris-HCl pH = 8.0, 250 mM NaCl, 1% glycerol, 20 mM imidazole). The column was washed with loading buffer for 5–10 CV and protein was eluted with elution buffer (50 mM Tris-HCl pH = 8, 250 mM NaCl, 1% glycerol, 400 mM imidazole). Simultaneous TEV cleavage (1 mg TEV protease was added to 100 mg peptides/proteins) and buffer exchange to loading buffer via dialysis was performed over night at 4 °C. After reverse IMAC, proteins were concentrated with conical concentrators (Millipore Merck, Darmstadt, Germany) and loaded on a Superdex 10/60 75 or 200 column (GE Healthcare, München, Germany) for further purification and equilibration with ITC/NMR buffer (25 mM HEPES pH = 7.5, 100 mM NaCl). For structural NMR spectroscopy, buffer containing 50 mM Tris-HCl pH = 7.5, 100 mM NaCl was used. Prior to NMR experiments, TCEP and protease inhibitors cocktail were added to the samples to final concentrations 1 and 5 mM, respectively. Purified peptides and protein were concentrated and stored at −80 °C. The protein and peptide concentrations were calculated from the UV absorption at 280 nm by Nanodrop spectrophotometer (Thermo Scientific, Langenselbold, Germany).
(§2) All ITC experiments were performed at 25 °C using a VP-ITC microcalorimeter (Malvern Panalytical Ltd., Malvern, UK). Peptides in concentration of ~400 µM were titrated into 20–25 µM solutions of corresponding binding partner at a stirring speed of 307 rpm. The raw data were corrected on the dilution heat of peptides obtained in independent experiment (titration of the peptide in syringe into the ITC/NMR buffer in the measuring cell). Pre-titration delay was set to 180 s, interval between titration steps was experimentally adjusted to avoid kinetic contribution to the observed heat effects and set to 200 s. A single ITC profile was collected for each type of interaction. The ITC data were analyzed based on a “one-site” binding model with MicroCal ITC software implemented in Origin 7.0.

Another test relates to Ub. The test can be described thus: Interaction of ubiquitin with UBA5 C-terminal region. It is filed as binding. As to the method:
as §2

In test [2] the target is T2, UFC1. The test can be described thus: In vitro thioester formation (ufmylation) assay, UFC1~UFM1 conjugate. It is filed as biochemical. The settings on record: 1 mM ATP, 22 °C; peptides added to UBA5 AD^1–330 where applicable. The procedure:
First, we analyzed the effect of the UBA5 C-terminus on UFM1 transfer to UFC1 with an in vitro thioester formation assay (Figure 1B–E).
Ufmylation reaction assays were adopted from work of Xie. Briefly, 70 µM UFM1, 20 µM UFC1 and 20 µM of different UBA5 constructs were mixed in reaction buffer (50 mM HEPES pH = 7.5, 100 mM NaCl, 5 mM MgCl2). After starting the reaction with addition of 1 mM ATP, the reaction mix was incubated at 22 °C for the desired time. To quench the reaction and prepare electrophoretic samples, 1 µL of the reaction mix was added to 99 µL 1x non-reducing SDS loading buffer and frozen in liquid nitrogen. Sample content was visualized by sodium dodecyl sulfate polyacrylamide gel electrophoresis (SDS-PAGE). The transfer to polyvinylidene difluoride (PVDF) membrane was performed via a Trans-Blot® Turbo™ Transfer System (Bio-Rad, München, Germany). After transfer the membrane was blocked with TBST (Tris-buffered saline with Tween20 buffer, 20 mM Tris, 150 mM NaCl and 0.1% TWEEN 20) containing 5% w/v nonfat dry milk for 1 h, followed by α-UFC1 antibody incubation over night at 4 °C (ab189251 abcam, 1:10,000 in TBST containing 5% w/v nonfat dry milk). After washing with TBST the membrane was incubated with secondary antibody (anti-rabbit-HRP) for 1 h at RT and again washed with TBST. Detection was performed by addition of ECL solution. For quantification of UFC1 ufmylation coloc2 software implemented in ImageJ was used.

T1 sequence (O95166 3-116): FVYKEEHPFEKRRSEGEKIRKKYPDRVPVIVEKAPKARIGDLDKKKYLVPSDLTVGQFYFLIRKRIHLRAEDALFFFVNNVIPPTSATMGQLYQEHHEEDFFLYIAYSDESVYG

In general, pKd refers to the Kd on a negative log10 scale, so that one unit is a factor of ten. High values mean a small Kd, low ones a large Kd. For “R1-R2-R3^325–404: UBA5 C-terminal part, residues 325–404 (recombinant, E. coli)”, in the test with GABARAP, the ΔG was -8.15 kcal/mol, the ΔS worked out at 24.2 cal mol^−1 K^−1 and the “−T*ΔS” value is -7.22 kcal/mol. The substance further had a N in the test with UFC1 [1] (ITC stoichiometry, peptide vs UFC1, ± = fitting error) of 1.03 ± 0.01. In addition, the “affinity increase to UFC1 vs R3^388–404” value with UFC1 [1] (ITC, 25 °C) was 3 fold. Further, in the test with UFC1 [1] (ITC, 25 °C, peptide vs UFC1), the ΔG was -7.66 kcal/mol and the “−T*ΔS” value is -0.62 kcal/mol. The ΔS with UFC1 [1] (ITC, 25 °C, peptide vs UFC1, one-site model, single profile) is 2.09 cal mol^−1 K^−1. In the test with UFC1 [1] (ITC, 25 °C, peptide vs UFC1, value is KA × 10^−6, ± = fitting error), the “KA*10^−6” value is listed as 0.41 ± 0.02 M^−1. This substance showed a pKd in the test with UFC1 [1] (ITC, VP-ITC, 25 °C, peptide ~400 µM titrated into 20–25 µM UFC1, 25 mM HEPES pH 7.5, 100 mM NaCl, one-site model, single ITC profile) of 5.62. This substance registered a ΔH with UFC1 [1] (ITC, VP-ITC, 25 °C, peptide ~400 µM titrated into 20–25 µM UFC1, 25 mM HEPES pH 7.5, 100 mM NaCl, one-site model, single ITC profile, ± = fitting error) of -7.04 ± 0.07 kcal/mol. Moreover, the interaction with ubiquitin result with Ub is “no interaction”. In the test with UFC1 [2], the “effect on UFC1~UFM1 conjugation (in words)” value is “gets rescued”.
